The source of these data is patent publication US20120121576A1 (ACCELERON PHARMA, published 2012).

Assay [1] concerns the target T1, ActRIIA-Fc (ActRIIA-mFc, dimeric protein) (human, UniProt P27037 20-135). The experiment in a line: SPR (BIACORE): Ab-14E1 captured on a CM5 chip by immobilized anti-mFc IgG, ActRIIA-mFc injected at different concentrations, nonlinear regression. From the text:
(§1) FIG. 9 depicts the kinetics of ActRIIA-Fc binding to Ab-14E1 as determined by BIACORE™-based analysis. A. Ab-14E1 was captured on a chip with covalently immobilized anti-mFC IgG and then exposed to ActRIIA-Fc at different concentrations. […] RU, relative units.
(In general: SPR reads the build-up and loss of mass on a sensor chip optically.)

Assay [2] deals with T1, ActRIIA-Fc (ActRIIA-mFc, dimeric …). The assay is described as follows: SPR (BIACORE); Ab-14E1 captured by immobilized anti-mFc IgG, ActRIIA-Fc as analyte.
Description: as §1

For assay [3], the target named is ActRIIA expressed by A204 human rhabdomyosarcoma cells (human, UniProt P27037 20-513). The assay is described as follows: cell-based or functional assay.
In assay [4] the target is T2, monomeric ActRIIA tagged with histidine (ActRIIA-His) (human, UniProt P27037 20-135).
T2 construct: also called monomeric extracellular domain of ActRIIA tagged with histidine
The assay is described as follows: SPR (BIACORE).

T1 sequence (P27037 20-135 limits assumed): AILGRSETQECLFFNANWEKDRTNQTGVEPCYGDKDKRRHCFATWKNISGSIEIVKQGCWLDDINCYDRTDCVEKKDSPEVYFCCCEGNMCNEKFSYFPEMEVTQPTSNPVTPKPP
Chain of ActRIIA expressed by A204 human rhabdomyosarcoma cells (P27037 20-513 limits assumed): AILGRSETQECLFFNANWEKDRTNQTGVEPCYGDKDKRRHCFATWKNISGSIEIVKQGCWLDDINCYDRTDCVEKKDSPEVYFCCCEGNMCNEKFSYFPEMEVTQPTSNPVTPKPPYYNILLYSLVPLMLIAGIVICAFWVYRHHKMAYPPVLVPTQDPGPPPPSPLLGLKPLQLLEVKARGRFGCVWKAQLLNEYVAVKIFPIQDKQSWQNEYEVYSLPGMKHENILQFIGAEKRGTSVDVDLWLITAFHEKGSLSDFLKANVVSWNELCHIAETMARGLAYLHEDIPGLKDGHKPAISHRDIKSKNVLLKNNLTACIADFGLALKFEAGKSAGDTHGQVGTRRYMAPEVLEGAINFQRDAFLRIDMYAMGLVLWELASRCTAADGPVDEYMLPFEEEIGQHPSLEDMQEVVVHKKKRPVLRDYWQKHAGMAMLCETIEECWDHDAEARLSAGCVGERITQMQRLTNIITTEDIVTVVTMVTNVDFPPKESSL
T2 sequence (P27037 other isoform, or with tags, fused parts or gaps limits assumed): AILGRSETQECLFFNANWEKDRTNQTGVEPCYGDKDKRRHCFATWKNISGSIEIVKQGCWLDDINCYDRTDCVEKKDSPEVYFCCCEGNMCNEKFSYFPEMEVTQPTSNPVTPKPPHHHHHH

B1: Ab-14E1 (antibody 14E1; hybridoma subclone 14E1.H8.H1) (antibody, V domains shown)
VH: DVQLQESGPGLVKPSQSLSLTCSVTGYSITSGYYWNWIRQFPGNKLEWMGYISYDGSNNYNPSLINRISITRDTSKNQFFLKLNSVTTEDTATYFCASYAYRNDVRFAYWGQGTLVTVSA
VL: DIQMTQTTSSLSASLGDRVTISCRASQDISNFLNWYQQKPDGTVKLLIYFTSRLHSGVPSRFSGSGSGTDYSLTITNLEQEDIATYFCQQGNTLPWTFGGGTKLEIK
Take B1: the kon in assay [1] came out at 86000 M⁻¹ s⁻¹. Besides, in assay [2], the Kd is approximately 0.012 nM and the off-rate constant (koff) was approximately 1e-06 s⁻¹. Also, the “IC50 of inhibition of activin A-stimulated reporter gene expression (pGL3(CAGA)12 luciferase) in A204 cells” value in assay [3] is 57.1 ng/ml. In addition, the “fold lower affinity than for ActRIIA-mFc” value in assay [4] was found to be 10 fold.

By kon is commonly meant the second-order rate constant of association. As usually defined, the Kd is the constant that tells how readily two partners part at equilibrium. High values mean lower affinity, low ones higher affinity. Broadly, the koff is the rate constant with which the complex falls apart.
